Earlier results, collected in article PMC7432558.

Target: TEAD1 (Homo sapiens) (UniProt P28347)
Sequence of UniProt P28347 (P28347 whole entry): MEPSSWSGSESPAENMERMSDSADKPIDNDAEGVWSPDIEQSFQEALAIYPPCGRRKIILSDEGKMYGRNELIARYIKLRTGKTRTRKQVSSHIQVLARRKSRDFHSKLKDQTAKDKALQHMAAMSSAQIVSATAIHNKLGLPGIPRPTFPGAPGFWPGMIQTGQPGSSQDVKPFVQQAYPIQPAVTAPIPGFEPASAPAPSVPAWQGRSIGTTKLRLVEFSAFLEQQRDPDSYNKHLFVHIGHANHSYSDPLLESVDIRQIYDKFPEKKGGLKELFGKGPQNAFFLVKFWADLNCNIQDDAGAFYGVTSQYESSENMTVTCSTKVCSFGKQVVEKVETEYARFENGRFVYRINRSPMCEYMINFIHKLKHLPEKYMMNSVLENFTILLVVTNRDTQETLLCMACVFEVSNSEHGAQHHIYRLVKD

Kd: 15 nM
Substance: YAP-derived cyclic peptide 81-100 (from UniProt P46937)
